Assay results: the supplement of paper PMC10126150
± gives the standard deviation of the averaged measurements.

system: ATP; assay: switch fluorescence ratio, 500 uM ATP over buffer (Cy3 cluster intensity, sum of 5 cycles each) (fold (ratio)); higher = stronger signal-on switching upon ATP binding; sequences stand for … in TCGTCGGCAGCGTCAGATGTGTATAAGAGACAGTTTTTTTTTTTTTTTTTTTTTTTTT…TC; conditions: aptamer strand: ATP DNA aptamer (quencher-CACCTGGGGGAGTATTGCGGAGGAAGG + anchor), 100 nM annealed; ATP concentration: 500 uM
Summary of the method: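 The fluorescence ratio divides summed target-cycle Cy3 intensity by summed buffer-cycle Cy3 intensity for each cluster and is averaged per switch-domain sequence. Cy3-labelled switching-strand clusters on a modified Illumina MiSeq flow-cell were annealed to 100 nM quencher-labelled ATP aptamer, then imaged in selection buffer and again after 15 min with 500 uM ATP at 22 °C. Five such cycles were run, with NaOH stripping and re-annealing between them, and clusters outside 100-1000 RFU were excluded.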
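Also: ATP exposure 15 min at 22 °C before imaging.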

Row | Sequence | switch fluorescence ratio
1 | AGTTGCTTCG | 0.975 ± 0.026
2 | AGAGTCTTTT | 0.9934 ± 0.0016
3 | AGTTTTGTGC | 1.005 ± 0.0017
4 | CGTTGTTCGT | 1 ± 0.0015
5 | GGGGAATGCG | 1.01 ± 0.0065
6 | TAATTTTATA | 0.9789 ± 0.0046
7 | TTAACTGGTA | 0.9904 ± 0.0016
8 | ATGATAGAGA | 1.06 ± 0.021
9 | GATCTTTTCG | 1.01 ± 0.037
10 | GGAGTTAGGA | 0.9866 ± 0.0098
11 | ATCTTCGGTT | 1 ± 0.055
12 | AGAGACGAAT | 1.013 ± 0.0085
13 | CGAAGGTTTC | 1.034 ± 0.0023
14 | CCTCATGGCA | 2.11 ± 0.17
15 | TTGCGGGCAG | 1.04 ± 0.032
16 | CATCCGTCCG | 1.353 ± 0.0037
17 | AAATGGCCAT | 1.01 ± 0.013
18 | GAAACTTGCA | 1.075 ± 0.0066
19 | GGGTGGTGCT | 0.978 ± 0.021
20 | CGGAGTACAG | 1.09 ± 0.11
21 | GTGAGTAAGC | 1 ± 0.0035
22 | AGGGGGGAAG | 0.989 ± 0.023
23 | GAGCTTGCTG | 0.9992 ± 0.0083

Row | Sequence | switch fluorescence ratio
24 | TCTGTGCAGG | 1 ± 0.015
25 | GAGACATCGT | 0.986 ± 0.018
26 | AAGTCTTTTC | 0.975 ± 0.036
27 | AGGGGGGTCG | 0.992 ± 0.072
28 | CTTGTATGAG | 0.989 ± 0.012
29 | AATGGGATTG | 0.972 ± 0.0096
30 | AACCGTTGAC | 1.21 ± 0.02
31 | TGCTACTGC | 1.03 ± 0.015
32 | AGAGGGGTAA | 0.998 ± 0.029
33 | GGGAGCCCGG | 0.989 ± 0.038
34 | GGGGGAATGC | 1.07 ± 0.11
35 | GTGTGAAAAC | 1.02 ± 0.02
36 | ACGGGAGCTT | 1.03 ± 0.041
37 | GGGTTTGACT | 0.998 ± 0.031
38 | GCCGGGGGTA | 1.04 ± 0.079
39 | GCGAGGGTCG | 1.01 ± 0.043
40 | TCATTATTCG | 0.985 ± 0.027
41 | TGAGGTACGG | 1.01 ± 0.029
42 | AGTTGGACGC | 1.07 ± 0.021
43 | TCATATTGCG | 0.983 ± 0.019
44 | TATTTGGGTA | 0.987 ± 0.026
45 | TGCACCGGGG | 1.02 ± 0.016
46 | GTGGAAGTCC | 1 ± 0.022

Row | Sequence | switch fluorescence ratio
47 | GTGGTTCCTG | 0.967 ± 0.015
48 | GCTTCTGGAA | 1.06 ± 0.018
49 | TTTAACTTAG | 1.016 ± 0.0032
50 | TATGTAGGAG | 0.994 ± 0.018
51 | AAAAACAACT | 1.024 ± 0.0076
52 | ACGGAACAAG | 1.09 ± 0.12
53 | TTACTTTTAC | 1.13 ± 0.14
54 | AGACGTAGTA | 1.03 ± 0.014
55 | AGGGGAGAGG | 0.992 ± 0.01
56 | AGGGGCAGTT | 0.985 ± 0.02
57 | TAACTGGTAC | 1.13 ± 0.05
58 | TTTGTTACTT | 1.01 ± 0.021
59 | TTCAATGAGG | 0.973 ± 0.052
60 | TTAAAGAGCT | 1.014 ± 0.0028
61 | TTATTAAAAC | 0.999 ± 0.013
62 | GTGGGCTTGT | 0.979 ± 0.048
63 | TCACAAATGA | 1.013 ± 0.0077
64 | TTTTCGATGG | 1.01 ± 0.016
65 | GGTTGAATTG | 0.974 ± 0.01
66 | ATATTCTTAG | 1.01 ± 0.013
67 | GATACAGCTA | 1.03 ± 0.042
68 | TTCGCTACGT | 1.02 ± 0.021
69 | GGTAGAGGGT | 0.978 ± 0.066

Row | Sequence | switch fluorescence ratio
70 | TCGCGGCTAT | 1.56 ± 0.61
71 | TGAGCCGCGG | 1.004 ± 0.0095
72 | ATTTCTAGAT | 1.024 ± 0.0093
73 | TTTGGTCGTG | 1.042 ± 0.0036
74 | TTGGAGATAG | 1.07 ± 0.1
75 | GTGGCAAAGA | 0.993 ± 0.023
76 | GGTGGGTTAG | 1.02 ± 0.032
77 | TCTAAGTAAC | 1 ± 0.025
78 | GTGGTATCAT | 0.978 ± 0.03
79 | GGGGCGGATT | 0.984 ± 0.014
80 | TGGGATGGAA | 1.004 ± 0.0031
81 | ACTAGGGGGG | 1.01 ± 0.022
82 | TTTCAGGTGT | 2.15 ± 0.98
83 | ATAGAATGGT | 0.9829 ± 0.00046
84 | GGTATATTAA | 1.02 ± 0.023
85 | CGGGAAGGAG | 0.9685 ± 0.0053
86 | TATTTAGTCT | 1 ± 0.026
87 | GGGAGGGCA | 1 ± 0.011
88 | ACAATGAAGA | 1.01 ± 0.039
89 | TTTGAGTAAA | 1.01 ± 0.019
90 | AGGCGTGCTT | 0.987 ± 0.032
91 | TTAGGCCAGG | 1.05 ± 0.017
92 | TAGTCAGTCG | 1.08 ± 0.11

Row | Sequence | switch fluorescence ratio
93 | ATAGTTGTGG | 0.977 ± 0.025
94 | GGAAGAATGG | 0.985 ± 0.024
95 | GAAATGGAGG | 0.995 ± 0.027
96 | CATTATTTCA | 0.997 ± 0.04
97 | CTTTTAAGGT | 0.984 ± 0.03
98 | AGGAGCTGCG | 0.998 ± 0.038
99 | TTTGCTAGAT | 1.047 ± 0.0097
100 | TTTCAATATT | 1.03 ± 0.031
101 | GGGGATAGTG | 0.997 ± 0.011
102 | TCTGACGGTG | 1.01 ± 0.017
103 | ACGGTCGGGC | 0.9775 ± 0.00067
104 | CGTGGAGTGG | 0.996 ± 0.029
105 | TAGCGTTTTT | 0.97 ± 0.018
106 | TGCGTCAAAT | 0.999 ± 0.024
107 | GAAAAAGCAT | 1 ± 0.016
108 | CGGAGTTAGC | 1.13 ± 0.028
109 | AATCTGCTGC | 1.09 ± 0.056
110 | GACGAATCAG | 0.97 ± 0.018
111 | TTCAAATGGA | 0.991 ± 0.041
112 | CCAAGGAGGG | 0.999 ± 0.017
113 | GAGGAATCGA | 1.04 ± 0.065
114 | TTTTTGATAC | 1.063 ± 0.0034
115 | TAATTTAAGT | 1.01 ± 0.028

Row | Sequence | switch fluorescence ratio
116 | TTATGTGTTT | 1.014 ± 0.006
117 | TTGATTAGGC | 1.06 ± 0.029
118 | CGGTTCGCGA | 1.03 ± 0.019
119 | TTTGGTGGCA | 0.9992 ± 0.0099
120 | CAAAGGTTGC | 1 ± 0.013
121 | TTTGTCGCTG | 1.01 ± 0.038
122 | AATGTAAAG | 1.03 ± 0.011
123 | GAGTGGACGG | 0.998 ± 0.018
124 | AATTAATTCC | 1.07 ± 0.026
125 | GGTCTTCATT | 0.963 ± 0.011
126 | GGCTTACAGT | 0.9941 ± 0.0061
127 | GGTTTTAGGA | 0.987 ± 0.025
128 | AAGATGTAGG | 1.025 ± 0.0086
129 | AGCATTGTTT | 0.985 ± 0.023
130 | AAGTATCCGT | 0.986 ± 0.048
131 | TTTCGAAGGT | 0.987 ± 0.019
132 | ATGTTAGGTT | 1 ± 0.029
133 | GCCAACGCTG | 1.1 ± 0.046
134 | CGCTCTTATT | 0.978 ± 0.016
135 | TATAATCCAG | 0.984 ± 0.024
136 | TTCTGAATAT | 1.01 ± 0.024
137 | CGGGTTTCAC | 1 ± 0.003
138 | TCAGAGACCC | 1.006 ± 0.009

Row | Sequence | switch fluorescence ratio
139 | TAAAAAAAGG | 1.05 ± 0.067
140 | GGGGAAACAA | 0.99 ± 0.024
141 | CGGGGTGGTT | 1.01 ± 0.038
142 | AGGGAAGAGA | 1 ± 0.021
143 | GCTTAAGGGC | 0.956 ± 0.033
144 | AGAATCGACG | 0.993 ± 0.056
145 | TAATTAATTT | 1.02 ± 0.025
146 | GGTGTGTTTG | 1.01 ± 0.046
147 | AGGTTGGGTG | 1.05 ± 0.013
148 | GCGAGAATAG | 1 ± 0.014
149 | AGTAAATATA | 0.993 ± 0.022
150 | GAGAGGCACA | 1.02 ± 0.051
151 | GTTGGATTTG | 0.994 ± 0.017
152 | GAGAGATTTT | 0.997 ± 0.034
153 | AAGGGGAAAA | 0.983 ± 0.02
154 | TATGTTGTGT | 0.96 ± 0.037
155 | GGGGGGCAGT | 1 ± 0.023
156 | TTGTTGGCGA | 1.04 ± 0.023
157 | ATAGTATGGG | 0.99 ± 0.046
